assay: soluble on expression in E. coli; label from the status in PepcDB or PDB records

Sequence	soluble on expression in E. coli
MDPSQQTPQETVVAPVAPLLEDQLELDMKHCFENLIVIDVGANLTNKKYSRDLDSVVQRARDAGVQKLMVHGTSVKSSKEALRLSRIYPDIIYSTAGIHPHDSKSIVEEPATWFDLEHIAQAQECVAIGPCGLDYQRDFSEPDAQKQIFAKQLHLAIRLNKPLLIHERSAQLDLLEILDKFENLPPVIIRGFMGTAEEALKYLDRRFYISLTGYLCKDKSDTGVRRLLEDGTLPLDRLLVETDAPFMYPNTRASKLPQHVKTGITERSLLYLHRYCTFQRNEPCSLPAIVEMIAAFMKKSPDEVALATAFNALKLFGLSLEHHHHHH	soluble
MDQTYAEIENIYTLSPIIATTPKRYDVQYIQQKSRKNRNLIDHFDSRLPIEYRYPKKNSSATSSLSSAASRSLASKSLASSSSGYSSLGSTSSITTVFNGLSPFRSKSKNEEFDEQKAPSMRISEDVASIVIGENNSEVEEAVIDEVPEIKKRACCIECREKEIRQELDLESHQYANLQSLQKPQDPYVFLMTSMLTNLQKEDGGRQVVKVQQKIEKVLRLKPREPFNVEQKLVFDRQISTFASDVTIRLRAVSDAAPETYRDVSARFCEALHPGTPNSKGLKNIVKGVKNLLNF	not soluble
MDRADLRIAVLMGTKDGAPFIDEQLQSLLAQSHPLIDLWISDDGSVDGTVPIIEAWKSRWTKGRVTLVQGPREGFAANFRSMILDRRIDADFYAFSDQDDVWEPDRLESAVQWMQAFGAEPPLMFCSRTATMTETGSLAGHSPLFRRPPSFRNALVQSIAGGNTILLNRAARDLLARASARTGFVSHDWWAYLVVTGAGGVVHYDPRPLVRYRQHAANLVGANVSWAARVSRLGRLFKGEFADWTDLNLAGLAVNRDLLTPDAATCLDLFASGRQGSLFQRLRTLLVSGVYRQTLAGTLGLYLAFVLGRILEHHHHHH	not soluble
MDRFEIKEEFLLNGQSFKILSGAIHYFRVDPSDWHHSLYNLKALGFNTVETYVPWNLHEPQKGTFHFEGILDLERFLKLAQELGLYAIVRPSPYICAEWEFGGFPAWLLNEPGRMRSNNPTYLKHVAEYYDVLMEKIVPHQLANGGNILMIQIENEYGSFGEEKAYLRAIRDLMIARGVTAPFFTSDGPWRATLRAGSMIEDDILVTGNFGSKAKENFGMMQAFFEEHGKKWPLMCMEFWDGWFNRWKEPIIKRDPQELAESVREALALGSINLYMFHGGTNFGFMNGCSARGTIDLPQITSYDYDAPLDEQGNPTEKYFALQKMLHEEYPALPQAEPLVKESFAQTAIPLTNKVSLFATLETISQPVVSVYPQTMEQLGQNTGYLLYRTSIEKDAAEEKLRVIDGRDRLQLFVNQVHQATQYQTEIGEDIYVTLPQENNQIDILMENMGRVNYGHKLFADTQKKGIRTGVMADLHFMTQWQQYCLPMTSCEQVDYSREWQPDQPSFYQYHVELAEVKDTFIDVSKFGKGIVFVNQTNLGRFWNVGPTLSLYIPKGLLKEGQNEIVIFETEGTYQPEIQLVKEPLYKEMKEGLQ	not soluble
MDRRQRFEKYDWLISKTQSILKNYECPESCNASCCRHHIIDFRRKEYEKILKNVDKESANILKSNAVKSELEGCYKAIVGQCPLLTNSKCRIYNNRPEACRNFPFVIFPDPEAGFGLTLLLCPISVNIIQDYAQWYKSVNLTMYNQLTAVYEQYKNIGENNDFCIQMKEQNLDSFIEFLEKKLEHHHHHH	not soluble
MDSAREVSDGRLTVEGFSVASRAFADKWKIHNQSFPPWSWVPLINRTLLVSKKEEGYLSLEKIIILSSLEEEIPEDESLNVATDCLEKEETVDHTILVPTMENEAHYYDFHIVYSASYKVPVLYFRGYCSGGEPLALDVIKKDVPSCSVSLLLESKWTFITQEEHPYLNRPWFKLHPCGTEDWIKLLSQSSSSSGCQMPIVLYLVSWFSVVGQVVGLRIPLEMLN	soluble
MDSDEEILSSYSSLTVTSRNETTISTRDSASNAMPVVVVDDEIFEDASSDISILTKRQESSSIHLDRSKMRKAVHQDLCTHDQKILEPLFLRKCEPHRVRQGTAPPNVIPIQKVENVEANKKFTGHSALLVSLNTPTYCVRYLAANAVHTPKNVLIFASPLSYVRFVARPDPQRTNQSVFEDPSETVRLMMAPDVAKVAQKMLPKWQTVTFTLAFGKHVAVKYRIIEVRKQPVTYVKAKADRVKRVSTSTLYRTEPVQRVDYWRSFKSNELKLSTVEKNDPQIVKRVFLEQQSLNWDPSGVIGTEKEHHHKTIVKSKKIKTGEELNLMWQRTDFH	not soluble
MDSKKILYISQEIFPYLPETDISVVSRKLPQTIQERGNEVRIFMPRYGIINERRNQLHEVIRLSGINMIINDNDHPLIIKVASIQSARMQVYFIDNDDFFKRKTMYDIKPKQENDNDERAIFFVRGALEAIKKLRWIPDVIHCHGWFTALAALYLKKMYADDPCLQKAKVVYSVYDDAGQGVIPETLFGKLGFDKITPDDLSVMEQSSDYLALNRLAIRYADGVIQGSETIAPELTDYISSLEGKAFLPYQGKEDYEEAFDNFYSDLLTANLEHHHHHH	not soluble
MDSRVWLPLIGAHLLPRDISVITQMIANNNNTSISRSSTNSSKPEEKNSKKFLIERFLDDDPSPPASILSPSPKAAIPSPIINPAVEFVNGGYGVKNPLAPLISSFETTSIPCSTVSPSSLISSSKDEFQDSLTCHICGKKFGLQRLLNRHIKCHSDLKRYLCTFCGKGFNDTFDLKRHTRTHTGVRPYKCEQCEKSFTQRCSLESHLRKVHGVTHQYAYKERRSKVFVCEDCGYTDEKFEVYLSHIKVVHPFSAAYLRFTQLQKKNSSMKPEQLSKISL	not soluble
MDTDAIRSEIFGQLARPDNSGIPKYRRLSNILVEAIRRGVWQPGDRLPAEEQLTEMTPFSLGTVQRALRALTDEGLVIRMQGHGNFVADQQRQMADPWHCRFLDDESDGIVPIYSKAVQRAVVTPSETGPWQRYLHSGSVMRLDRIINVNDEFRIFSRFYADRELLQPLWHVPLEELDGANFKDIIMRQVGLPITEIDRSVRIRRIDAQAARLIGVAPEATVLFMQAVARAGRDACIYYQEFYIPETGRALQLPEQRPRVHGR	not soluble
MDTRTRHLKVSNCPNNSYALANVAAVSPNDFPNNIYIIIDNLFVFTTRHSNDIPPGTIGFNGNQRTWGGWSLNQDVQAKAFDLFKYSGKQSYLGSIDIDISFRARGKAVSTVFDQDELAKQFVRCYESQIFSPTQYLIMEFQGHFFDLKIRNVQAIDLGDIEPTSAVATGIETKGILTKQTQINFFKGR	soluble
MDTSSFETDLSLFKYDDLEALPDEYRELTPTARTERIEAARAELGDDVVVLGHNYQRREIVEHADFVGDSYQLSKEAANADADYVIFGGVTFMAESADIITDDSQSVILPSMEASCPMAGMAEALQVDAAWADITAAAPDETIIPITYMNSYADLKAFCAEQGGLVCTSSNAHRAFEWAFERGDKVLFLPDKHLGENTAHRLGMADATVEWDPWAAEGKTAEEVADADIVLWDGYCQVHERFTPEHVAEVRADHEDANVVVHPECRREVVEAADVVGSTATITETVADADPGETWAIGTEIHLANHLQRWHPEVNVVPLCGDACMDCNAMRQIDPNYLAWVLEELVEGRERNVIEVDSEEAELAQVGLDRMLELLEHHHHHH	not soluble
MDTTPEPFTGKMGSYILIAPDGDAAMIDSGPKTSWERVREELQSMGVRLRYVILTHIHLDHASAAGSIVRSLDTVEAVYVHPRGARHMADPERLWQASKQFLGDYADFFGKPEPVPEGKIVVPEDGEVLELPGGVKLHVIYTPGHASHHMSFYLPQEGVMFTGDSAGVSLKDDDGTLVEFPTTPPPFKPVEYINSLDAMARFKPEKLAFAHYGMRSGGMEYLRWHREDILRWVREAVEYVSRGGGDAEELMRLLADKLENAGKAYRARNPIISEFMYRGTVLGLMDTAVRGEWKRLHL	soluble
MDTTYGPPAPALSGLTLGIREYSLFQAVLLVIDRLRDAHPHLSEDDLYDQLEFQANPSLGFPSSDVSRVEFFHEHGQMRARMQFNLIGLVGSGSPLPAFYGEQALGDSEDGNPTRNFLDLFHHRLQRLMLPIWKKYRYRASFESGALDPFSAQLFALIGLGGEEIRRAQELNWKRLLPYLGLLSLRAHSAALIEAVLRYYFKHAELTIEQCIERRVEILDEQRNRLGSANSMLGEDLVLGDHVRDRSGKFRIHIRELDWQRFHEFLPIGFGYQPLCALVRFTLRDPLDYDIRLVLRQEEIRELRIGEQNACRLGWTSWLGREKADGVVTLGSKIH	not soluble
MDTVTKLSIIIPAWNEETGIARTLETLLALTAGRGDTEIIVSVSGNDRTKAIARTFPVVVCHSEKGRAVQMNAGAKLATGSILYFLHADTTPPPSFCDDIFSAIERGARAGCFRMTFDDPDWLMQLYGWFTQFPLPVCRGGDQSLFITKELFGQIGGFDERLQIMEDIEIIDRLQRHAGFHILDSTVTTSARKYHTNGTVRLQAIFGTIHLMYALGFSQKNIVAFYRDSIRLEHHHHHH	not soluble
MDVADSTSETPPVFDHDNLALAAQTNLLQFYLTHLASTLVPPMKLDMRDSMTPSFSQTESPNSETDDSTSAANKVLFSILGTPTTDSTSNAVSKSSSKLCSVCGDKSTGLHYGAATCEGCKGFFKRSVQNKKVYHCSQDNCCEIDKQNRNRCQSCRFRKCISKGMLTEAVREDRMPGGRNGNSIYSNYKQRRSIIRKTKDYVEEQERRPFQSLPSGKKLIKELVEMDCLDRLINLKGLRINPSANCDIAPACKRLTRIGDEIVEQLVEWTKTLPFFDELPVEAHTHLLTQRWAELVLLSAGYYACSVFTPDSPDTTEMIDETDEISFTNPQVNLRLLQNRLSLVLGKEIPLEHVAKEAGPLVTRFTTLLHSFSNLKVSPEAYVCIKAITLLHLSADSTLDRSIIDKVNTLQDHFVKTLQIHLHQPGEDAQTTSLAQILDWLPDLRNASSVLLHSKMFYVPFLLCKNPRRLVFDE	not soluble
MDVDLAAPMSESEKLLYRSNLLGSDKRITNYGGGNTSAKVIETDPLTGEPAEVLWVKGSGGDVGSIRMDGFATLYMDKLNALRGIYRGGEHEDEMVAFLRHCTFNLNPRAASIDTPLHAYVPAKHVDHMHPDAIIAIAAAKDSKKLTQEIFGDRIGWLPWKRPGYELGLWLSDFCEKNPDAKGVVLESHGLFTWADDARECYERTLEIIQTAMDWFAEQTAGKPAFGGALEHHHHHH	not soluble
MDVGKLESFIVEKMAERKVPGISISIIKDGDVVYAKGFGYRNVEARLPSTPETIYGIGSITKSFTALAIMKLVEEGGLSLDDPVEKFVNIKLRPFGEPVTVHHLLTHSSGIPSLGYAEAFIDGMVGGDNWLPVSTPEETIAFARDMEKWAVAKPGERFFYLNTGYVLLGKIIEKVSGVSYEEYIKKKILEPLGMNRSYFFKEEVEKDKDVAMGYILDKEGRLVPQPFPYGITADGGLLSSVLDLAKYLKMYIERDESIVSKEYIEKMETSYIKVPWEIFGGEGYGYGLIIYPNFLGEKLVGHSGSVGMYTGYIGYIPEKKIGVAVLENSSGYPPSYIAMYALALLLGKNPEKELPFIYRERILKKVEGRYMGYKGTIKFEVKVDGDVVYLRALGRAFTYTIPLFPEVLEEDFIKCYTLSNGRKMYAEFYIKDNKVDLIFERYRLIKS	soluble
MDVLIIGGGEAGLVAGCRALTMGQKVILVEKNGYLGGATILNGSNVVGTGSDVAAQIFDNNHDTPEMLAQDVARESLETNYPALTDLMVHNIGPAIDFISKFADLHYQKAQTQTPEHSINRQIELPSASSYEFIQKVSKAFAAAGGQIMLDTRVEKLMLDNDKKLRGVIAAQKDQTVNIKARSVVLAAGGHGANQKMRGTESEGIDYYGPMTSTGDAYQFNGDLDLQTHDLGWYKLYPHGVEVEPGVAKLTTYASKQATDMGAIYVNSKGDRIVNESNVYTTFRNAILKQADKVAYLVMDERTWKKVYDLLILHDFTPEEIKSFFENKGKRPVFVKGSLESAAEQAGIVVDELVQTVKNYQGYVQDGHDHDFGRDPKYLHQFEGETFYIIEQRDRFATTLGGYSVDADNLQLVTTKNAPVANYFGAGEIIGGANGHDSMPSMMNTWGISSGYVAGAAASENAQRQATAGAAALEHHHHHH	not soluble

Reference: the DeepSol protein solubility set
